The source of these data is paper PMC10894483, “In silico design of multipoint mutants for enhanced performance of Thermomyces lanuginosus lipase for efficient biodiesel production” (Biotechnology for Biofuels and Bioproducts, 2024).

Substrate in the series: CCCCCCCCCCCCCCCC(=O)Oc1ccc([N+](=O)[O-])cc1
Description: colorimetric p-nitrophenol release, Michaelis-Menten fit. It is filed as biochemical, Thermomyces lanuginosus. To be noted: 45 °C, Tris-HCl pH 8.5, 10-100 mM pNPP, fermentation supernatant.

B1: Thermomyces lanuginosus lipase (TLL; wt–TLL) (Thermomyces lanuginosus) (protein)
chain: EVSQDLFNQFNLFAQYSAAAYCGKNNDAPAGTNITCTGNACPEVEKADATFLYSFEDSGVGDVTGFLALDNTNKLIVLSFRGSRSIENWIGNLNFDLKEINDICSGCRGHDGFTSSWRSVADTLRQKVEDAVREHPDYRVVFTGHSLGGALATVAGADLRGNGYDIDVFSYGAPRVGNRAFAEFLTVQTGGTLYRITHTNDIVPRLPPREFGYSHSSPEYWIKSGTLVPVTRNDIVKIEGIDATGGNNQPNIPDIPAHLWYFGLIGTCL
notes: N-terminal 6xHis-tag, yeast secretion signal, secreted from Pichia pastoris GS115; fermentation supernatant used without purification (single band); 35 kDa
Regarding B1, the Km is given as 3.61 ± 0.10 mM.
